The results in this text go back to patent US20240288440A1 (MACFARLANE BURNET INSTITUTE FOR MEDICAL RESEARCH AND PUBLIC …, published 2024).

B1: CB6-IgA2 (monomeric chimeric IgA2 of monoclonal antibody CB6) (antibody)
heavy: ASEVQLVESGGGLVQPGGSLRLSCAASGFTVSSNYMSWVRQAPGKGLEWVSVIYSGGSTFYADSVKGRFTISRDNSMNTLFLQMNSLRAEDTAVYYCARVLPMYGDYLDYWGQGTLVTVSSASTKGPSVFPLAPSSKSTSGASPTSPKVFPLSLDSTPQDGNVVVACLVQGFFPQEPLSVTWSESGQNVTARNFPPSQDASGDLYTTSSQLTLPATQCPDGKSVTCHVKHYTNPSQDVTVPCPVPPPPPCCHPRLSLHRPALEDLLLGSEANLTCTLTGLRDASGATFTWTPSSGKSAVQGPPERDLCGCYSVSSVLPGCAQPWNHGETFTCTAAHPELKTPLTANITKSGNTFRPEVHLLPPPSEELALNELVTLTCLARGFSPKDVLVRWLQGSQELPREKYLTWASRQEPSQGTTTFAVTSILRVAAEDWKKGDTFSCMVGHEALPLAFTQKTIDRLAGKPTHVNVSVVMAEVDGTCY
light: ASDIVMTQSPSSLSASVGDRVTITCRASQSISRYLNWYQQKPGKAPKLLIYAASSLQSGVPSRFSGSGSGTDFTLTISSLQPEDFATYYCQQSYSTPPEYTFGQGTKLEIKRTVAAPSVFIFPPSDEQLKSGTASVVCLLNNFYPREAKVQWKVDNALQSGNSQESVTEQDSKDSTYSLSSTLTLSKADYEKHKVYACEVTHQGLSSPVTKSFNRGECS
notes: also called monomeric CB6-IgA2
B2: chimeric secretory component (CSC) of the polymeric immunoglobulin receptor (receptor)
chain: QSSLLGPSSIFGPGEVNVLEGDSVSITCYYPTTSVTRHSRKFWCREEESGRCVTLASTGYTSQEYSGRGKLTDFPDKGEFVVTVDQLTQNDSGSYKCGVGVNGRGLDFGVNVLVSQKPELLNDTKVYTVDLGRTVTINCPFKTENAQKRKSLYKQIGLYPVLVIDSSGYVNPNYTGRIRLDIQGTGQLLFSVVINQLRLSDAGQYLCQAGDDSNSNKKNADLQVLKPEPELVYEDLRGSVTFHCALGPEVANVAKFLCRQSSGENCDVVVNTLGKRAPAFEGRILLNPQDKDGSFSVVITGLRKEDAGRYLCGAHSDGQLQEGSPIQAWQLFVNEESTIPRSPTVVKGVAGGSVAVLCPYNRKESKSIKYWCLWEGAQNGRCPLLVDSEGWVKAQYEGRLSLLEEPGNGTFTVILNQLTSRDAGFYWCLTNGDTLWRTTVEIKIIEGEPNLKVPGNVTAVLGETLKVPCHFPCKFSSYEKYWCKWNNTGCQALPSQDEGPSKAFVNCDENSRLVSLTLNLVTRADEGWYWCGVKQGHFYGETAAVYVAVEERKAAGSRDVSLAKADAAPDEKVLDSGFREIENKAIQDPRLFAEEKAVADTRDQADGSRASVDSGSSEEQGGSSRR
notes: also called R/HpIgR; chimeric pIgR; not shown: C-terminal 6 histidine tag

For experiment [1], the target named is B2. The experiment can be described thus: lateral flow assay, CSC test line, detection with RBD-biotin/streptavidin gold.
The target in a further experiment is T1, purified IgM.
T1 construct: also called pentameric IgM
Briefly: pull-down on CSC beads, reducing SDS-PAGE, bands quantitated.

Another experiment concerns the target purified IgG. The experiment is described as above.

With B1, the binding result in experiment [1] is reported as “no binding (tested: 100 µg/ml)”.

For the molecule B2, the percent bound with purified IgM and with purified IgG was about 20% throughout.
